The values that follow come from PMC2408619.

Assay [1] deals with His-tagged ectodomain of B. bronchiseptica pertactin (Prn-E; residues 38-640) (B. bronchiseptica) (UniProt Q03035). The assay can be described thus: pull-down; varying concentrations of Mtd incubated with 80 μM His-tagged Prn-E (5 min, 25 °C) before adding Ni2+-NTA beads; apparent Kd of Mtd-M1 estimated against Mtd-P6 with the Langmuir isotherm.
In assay [2] the target is Biotinylated Prn-E (pertactin residues 38-640 with N-terminal biotinylation sequence) (B. bronchiseptica) (UniProt Q03035). Nature of the assay: SPR; Biacore 3000, 25 °C; ~100 RU biotinylated Prn-E on a streptavidin chip; Mtd proteins injected in 150 mM NaCl, 50 mM Tris pH 8.0, 0.005% Tween 20 at 30 μl/min; single-site model, global fit, six concentrations, duplicate.
For assay [3], the target named is Pertactin (Prn-E) ectodomain (Bordetella bronchiseptica) (UniProt Q03035). Nature of the assay: ITC. The note with it: cited from earlier work.
Assay [4] addresses His-tagged ectodomain of B. bronchiseptica pertactin (Prn-E; residues 38-640) (B. bronchiseptica) (UniProt Q03035). The assay can be described thus: not stated; unpublished data; stoichiometry of Mtd-P6 with pertactin.
Assay [5] deals with Biotinylated Prn-E (pertactin residues 38-640 with N-terminal biotinylation sequence) (B. bronchiseptica) (UniProt Q03035). Nature of the assay: SPR. The note with it: natural protein.

As a reminder, the kon is the second-order rate constant of association. A low value points to slower complex formation. By koff is commonly meant the first-order rate constant of dissociation. The low end stands for a long-lived complex, the high end for a short-lived complex.

As for “Bordetella bacteriophage major tropism determinant variant Mtd-M1 (from UniProt Q775D6 1-381) (natural protein)”, the Kd in assay [1] is 500 µM; in assay [2] it was over 450 µM.
Turning to Mtd-P1 (from UniProt Q775D6), in assay [3], the Kd is 3.04 µM.
Take “Bordetella bacteriophage major tropism determinant variant Mtd-P6 (from UniProt Q775D6 1-381) (natural protein)”: the stoichiometry N (Mtd-P6 protomers per pertactin) in assay [4] was 3. In assay [2], this substance gave a Kd of 5.19 µM and a kon of 10000 M⁻¹ s⁻¹.
Take “Bordetella bacteriophage major tropism determinant variant Mtd-P6 (from UniProt Q775D6 1-381)”: the koff in assay [5] came out at 0.112 s⁻¹.
